One molecule from US20210063414A1, “METHODS FOR PREVENTING AND/OR TREATING BONE LOSS CONDITIONS BY MODULATING IRISIN” (Dana-Farber Cancer Institute, Inc., priority 2018, published 2021) can be followed below.

“Also recorded” adds a separate entry of the source.

Data set [1] relates to sclerostin mRNA in MLO-Y4 cells. The experiment in a line: Sclerostin mRNA in MLO-Y4 cells, qRT-PCR. Type of data set: cell-based, mouse. The conditions noted are these: MLO-Y4, irisin 16 hours. The protocol: Cells were stained with Hoechst 33342 and Eth-D1, and analyzed to determine the percentage of cell death. *: p<0.05, ***: p<0.001 vs 0.3 mM H2O2 treated condition. […] MLO-Y4 cells were seeded and incubated until 60% cell density. The cells were incubated with Freestyle293 medium for 4 hours and were treated with indicated concentrations of irisin for 16 hours. Sclerostin mRNA level was analyzed by qRT-PCR. Cyclophilin was used as a control house-keeping gene.
MLO-Y4 cells were incubated in serum free medium for 3 hours followed by treatment of indicated concentrations of irisin for indicated time (FIG. 6A), or followed by treatment of 0 or 10 nM irisin in the presence of indicated integrin inhibitors or their control peptide for 16 hours (FIG. 6B). Sclerostin mRNA level was analyzed by qPCR.
Certain materials and methods were used to generate the results described herein. […] Cells were stained with Hoechst 33342 (ThermoFisher Scientific, catalog number H3570) and Eth-D1 (ThermoFisher Scientific, catalog number E1169) and analyzed to determine the percentage of cell death using ImageJ. […] Co-precipitated irisin was analyzed by immunoblot analysis against flag tag (Sigma Aldrich, catalog number A8592). […] Sclerostin mRNA level was analyzed by qPCR (FIG. 7A). […]
In general terms: Real-time PCR tracks product formation cycle by cycle.

The nature of data set [2]: Half-life of recombinant his-tag irisin in vivo, plasma immunoblot against his-tag. As to conditions: C57BL/6 mice, 1 mg/kg I.P. How it is done:
C57BL/6 mice were injected with irisin (1 mg/kg, I.P.) or sterilized PBS and blood was collected at indicated time point. Irisin in plasma was detected using immunoblot analysis against his-tag.
(In general: A western blot detects proteins with antibodies after separation by electrophoresis.)

B1: irisin: secreted cleaved form of FNDC5; recombinant human/mouse irisin with C-terminal his tag produced in HEK293 cells (protein)
chain: DSPSAPVNVTVRHLKANSAVVSWDVLEDEVVIGFAISQQKKDVRMLRFIQEVNTTTRSCALWDLEEDTEYIVHVQAISIQGQSPASEPVLFKTPREAEKMASKNKDEVTMKE
modifications: left off: small tags and cut ends
notes: secreted cleaved form of FNDC5; recombinant human/mouse irisin with C-terminal his tag produced in HEK293 cells
Turning to B1, the “sclerostin mRNA level” value in data set [1] was “increased; also recorded: raised the mRNA level of sclerostin in the osteocyte cultures in a dose-dependent manner”. Further, in data set [2], the half-life in vivo result is “less than an hour”.
